Source: US20190202925A1
One block for each binder: values may come before it.

Legend:
[1] = biological target: human TNFR2 on cells (human) (UniProt P20333); assay: cell-based or functional assay
[2] = biological target: monomeric human TNFR2 extracellular domain (human) (UniProt P20333); assay: BLI (Octet Red 96), Human TNFR2 Kd (1-1)

Chain of human TNFR2 on cells (human) (P20333 23-461): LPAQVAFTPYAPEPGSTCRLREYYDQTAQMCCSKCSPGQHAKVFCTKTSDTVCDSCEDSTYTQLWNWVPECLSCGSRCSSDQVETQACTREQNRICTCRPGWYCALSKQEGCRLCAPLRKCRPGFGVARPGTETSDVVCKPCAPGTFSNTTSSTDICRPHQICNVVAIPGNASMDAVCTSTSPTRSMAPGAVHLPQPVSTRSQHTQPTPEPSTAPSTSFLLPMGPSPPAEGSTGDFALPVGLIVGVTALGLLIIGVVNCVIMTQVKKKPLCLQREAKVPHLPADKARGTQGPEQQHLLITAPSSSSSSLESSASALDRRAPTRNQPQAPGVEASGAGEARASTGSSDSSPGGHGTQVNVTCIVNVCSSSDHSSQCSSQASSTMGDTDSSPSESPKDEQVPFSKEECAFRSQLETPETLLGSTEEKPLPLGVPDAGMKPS

IC50 (µg/mL) (with pre-incubation); rescue of Jurkat H6 cells from 2 ng/mL TNFα, luminescence [1]: 0.09 µg/mL | IC50 (µg/mL) (without pre-incubation); rescue of Jurkat H6 cells from 2 ng/mL TNFα, luminescence [1]: 0.1 µg/mL
B1: SBT-004 (antibody, V domains shown)
VH: EVQLQQSGPEVGRPGSSVKISCKASGYTFTDYIMHWVKQSPGQGLEWIGWVDPEYGSTDYAEKFKKKATLTADTSSNTAYIQLSSLTSEDTATYFCARDDGSYSPFDYWGQGVMVTVSS
VL: DIQMTQSPPSLSASLGDKVTITCQASQNINKYIAWYQQKPGKAPRLLIRYTSTLESGTPSRFSGSGSGRDYSFSISNVESEDIASYYCLQYVNLLTFGAGTKLEIK

Kd [2]: 5 nM
B2: chimeric SBT-004 Fc null (antibody, part only; not given: light chain and Fc null constant region, V domains shown, part only)
VH: B1 VH
